Measured values from patent US20030207791A1, “Materials and methods relating to the treatment of leukaemias” (priority 2000, published 2003).

B1: PML-RAR: leukaemia-associated chimeric transcription factor, fusion of PML and RAR (protein)
chain: MEPAPARSPRPQQDPARPQEPTMPPPETPSEGRQPSPSPSPTERAPASEEEFQFLRCQQCQAEAKCPKLLPCLHTLCSGCLEASGMQCPICQAPWPLGADTPALDNVFFESLQRRLSVYRQIVDAQAVCTRCKESADFWCFECEQLLCAKCFEAHQWFLKHEARPLAELRNQSVREFLDGTRKTNNIFCSNPNHRTPTLTSIYCRGCSKPLCCSCALLDSSHSELKCDISAEIQQRQEELDAMTQALQEQDSAFGAVHAQMHAAVGQLGRARAETEELIRERVRQVVAHVRAQERELLEAVDARYQRDYEEMASRLGRLDAVLQRIRTGSALVQRMKCYASDQEVLDMHGFLRQALCRLRQEEPQSLQAAVRTDGFDEFKVRLQDLSSCITQGKDAAVSKKASPEAASTPRDPIDVDLPEEAERVKAQVQALGLAEAQPMAVVQSVPGAHPVPVYAFSIKGPSYGEDVSNTTTAQKRKCSQTQCPRKVIKMESEEGKEARLARSSPEQPRPSTSKAVSPPHLDGPPSPRSPVIGSEVFLPNSNHVASGAGEAIETQSSSSEEIVPSPPSPPPLPRIYKPCFVCQDKSSGYHYGVSACEGCKGFFRRSIQKNMVYTCHRDKNCIINKVTRNRCQYCRLQKCFEVGMSKESVRNDRNKKKKEVPKPECSESYTLTPEVGELIEKVRKAHQETFPALCQLGKYTTNNSSEQRVSLDIDLWDKFSELSTKCIIKTVEFAKQLPGFTTLTIADQITLLKAACLDILILRICTRYTPEQDTMTFSDGLTLNRTQMHNAGFGPLTDLVFAFANQLLPLEMDDAETGLLSAICLICGDRQDLEQPDRVDMLQEPLLEALKVYVRKRRPSRPHMFPKMLMKITDLRSISAKGAERVITLKMEIPGSMPPLIQEMLENSEGLDTLSGQPGGGGRDGGGLAPPPGSCSPSLSPSSNRSSPATHSP
B2: p53-RAR: RAR fused C-terminally to the tetramerization domain present in p53 (protein)
chain: GEYFTLQIRGRERFEMFRELNEALELKDAQAGMASNSSSCPTPGGGHLNGYPVPPYAFFFPPMLGGLSPPGALTTLQHQLPVSGYSTPSPATIETQSSSSEEIVPSPPSPPPLPRIYKPCFVCQDKSSGYHYGVSACEGCKGFFRRSIQKNMVYTCHRDKNCIINKVTRNRCQYCRLQKCFEVGMSKESVRNDRNKKKKEVPKPECSESYTLTPEVGELIEKVRKAHQETFPALCQLGKYTTNNSSEQRVSLDIDLWDKFSELSTKCIIKTVEFAKQLPGFTTLTIADQITLLKAACLDILILRICTRYTPEQDTMTFSDGLTLNRTQMHNAGFGPLTDLVFAFANQLLPLEMDDAETGLLSAICLICGDRQDLEQPDRVDMLQEPLLEALKVYVRKRRPSRPHMFPKMLMKITDLRSISAKGAERVITLKMEIPGSMPPLIQEMLENSEGLDTLSGQPGGGGRDGGGLAPPPGSCSPSLSPSSNRSSPATHSP

How the values were obtained:
[1] = system: murine hematopoietic progenitors (lin-); assay: In vitro differentiation of murine hematopoietic progenitor cells transduced with retroviral constructs; format: cell-based; settings: for effect on differentiation of transduced progenitors: compared with control cells
Procedure: FIG. 5. A heterologous oligomerization domain activates the transforming potential of RAR. (A-B) p53-RAR form oligomers. (A) Nuclear extracts from COS-1 cells transfected with expression vectors for p53-RAR or RAR were incubated with tritiated RA (10 nM), fractionated and analysed as described in FIG. 3A. Note that the low MW peak of RA-binding capacity (coinciding with RAR) in p53-RAR cells derives from expression of wild type RAR, starting from its own ATG-conserved in the p53-RAR expression vector (see below)-. (B) Fractions from gel filtration of in vitro translated, ^35-S labelled p53-RAR were analysed by SDS-PAGE, followed by autoradiography. Note that two products are generated in the reaction: full-length p53-RAR, fractionating in oligomeric complexes, and RAR, starting from the internal ATG site of RAR and fractionating as a monomer. (C-D) Effects of RAR chimeric proteins on differentiation of murine hematopoietic progenitors. Lin-cells were transduced with the indicated retroviral vectors and then sorted by FACS on the basis of their GFP positivity. In the case of ΔCC-PML-RAR, GFP+ cells were sorted in GFP^high or GFP^low expressors. After sorting, cells were either plated in differentiation medium in the absence or in the presence of RA (3 nM or 1 μM) (C), or analysed by Western blot (D). C, control, P-R, PML-RAR, ΔCC-P-R, ΔCC-PML-RAR, G-PR, GFP-PML-RAR, G-ΔCCPR, GFP-ΔCC-PML-RAR, G-p53R, GFP-p53-RAR. As described, RA delays myeloid differentiation of control cells, leading to a maximum 20-30% reduction in the number of Mac1 + cells (Purton et al., 1999). This effect is counter-acted by expression of PML-RAR and by high levels of ΔCC-PML-RAR. […]
The capacity of p53-RAR to block differentiation was evaluated using primary hematopoietic precursors purified from murine bone marrow on the basis of the absence of surface differentiation antigens (lin-see methods). […] After 8-10 days, colonies were pooled and analysed for the expression of myeloid differentiation markers (Mac-1 and GR-1). […]

GST-NCoR = target: T1, GST-NCoR (Mus musculus, UniProt Q60974); assay: GST-NCoR pull-down assay with in vitro translated 35S labelled proteins; format: binding; settings: increasing amounts of GST-NCoR
T1 construct: made in house
T1 sequence (Q60974 1782-2453): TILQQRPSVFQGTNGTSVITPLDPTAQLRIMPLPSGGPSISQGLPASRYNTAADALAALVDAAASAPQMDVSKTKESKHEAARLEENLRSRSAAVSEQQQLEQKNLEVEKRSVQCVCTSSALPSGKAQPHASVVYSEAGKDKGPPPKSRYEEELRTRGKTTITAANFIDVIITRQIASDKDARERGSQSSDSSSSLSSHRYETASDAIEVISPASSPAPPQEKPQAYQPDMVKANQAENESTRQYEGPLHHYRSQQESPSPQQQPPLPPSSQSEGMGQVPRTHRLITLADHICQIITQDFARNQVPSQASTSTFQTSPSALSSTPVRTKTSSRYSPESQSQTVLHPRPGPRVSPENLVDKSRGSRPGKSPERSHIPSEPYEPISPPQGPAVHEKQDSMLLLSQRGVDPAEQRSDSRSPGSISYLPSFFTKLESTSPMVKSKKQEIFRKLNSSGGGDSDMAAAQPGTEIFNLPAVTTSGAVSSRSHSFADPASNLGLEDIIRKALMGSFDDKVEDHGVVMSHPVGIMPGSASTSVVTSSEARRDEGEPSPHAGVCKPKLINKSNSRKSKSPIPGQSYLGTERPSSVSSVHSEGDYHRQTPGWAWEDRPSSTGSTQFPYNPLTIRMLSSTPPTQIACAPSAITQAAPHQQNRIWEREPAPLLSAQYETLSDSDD
Procedure: FIG. 1. Enhanced recruitment of NCoR by PML-RAR is due to the coiled coil region of PML. Increasing amounts of GST -NCoR (from 150 ng to 10 μg) coupled to agarose beads were incubated with the indicated in vitro translated, ^35-S labelled proteins. On the left, a schematic representation of the in vitro translated products, with the tripartite motif of PML highlighted (R, RING finger; B, B boxes; CC, coiled coil). The input lanes are loaded with the same amounts used in the pull-down experiments.
Recruitment of the NCoR-HDAC complex is crucial for the transforming potential of PML-RAR. At low concentrations of RA (1-100 nM), the stability of the PML-RAR-NCoR complex is higher than that of the RAR-NCoR complex (Grignani et al., 1998; He et al., 1998; Lin et al., 1998). […] Pull-down assays were performed by incubation of in vitro translated, ^35S labelled PML-RAR or RAR with GST-NCoR coupled to agarose beads.
GST-NCoR (1782-2453) or GST-NCoR (RDIII) purification and in vitro interaction experiments were performed as described, incubating the indicated amounts of GST-NCoR attached to a constant amount of glutathione-agarose beads in the presence of the appropriate ^35-S labelled, in vitro translated proteins(Gelmetti et al., 1998; Grignani et al., 1998; Zamir et al., 1996). The input lanes represent 100% of the total. Coimmunoprecipitation experiments were performed as described(Gelmetti et al., 1998), using extracts from transiently transfected COS-1 cells, or in vitro translated products.

Molecule	differentiation block ([1]; Mac-1, 8-10 days in methylcellulose)	effect on differentiation of transduced progenitors [1]	binding to GST-NCoR (GST-NCoR)
B1	about 50%	strong reduction in their capacity to differentiate	bound specifically to the beads even at the lowest amounts of GST-NCoR tested
B2		strong decrease in the number of Mac1+ and GR1+ cells	bound NCoR even at the lowest amounts of GST-NCoR tested
